Measured values reported in article PMC7435202 (Nature Communications, 2020).

Target: the molecule itself
Assay: cryo-EM structure; native full-length gB with 93k Fab fragments added in molar excess, overnight at +4 °C; Amphipol 8-35, TBS pH7.4, Superose-6; single particle, C3 symmetry imposed

B1: native, full-length VZV glycoprotein B (gB) purified from VZV-infected MeWo cells (natural protein, UniProt Q4JR05 72-931, looked up)
chain: VSPSSFYESLQVEPTQSEDITRSAHLGDGDEIREAIHKSQDAETKPTFYVCPPPTGSTIVRLEPPRTCPDYHLGKNFTEGIAVVYKENIAAYKFKATVYYKDVIVSTAWAGSSYTQITNRYADRVPIPVSEITDTIDKFGKCSSKATYVRNNHKVEAFNEDKNPQDMPLIASKYNSVGSKAWHTTNDTYMVAGTPGTYRTGTSVNCIIEEVEARSIFPYDSFGLSTGDIIYMSPFFGLRDGAYREHSNYAMDRFHQFEGYRQRDLDTRALLEPAARNFLVTPHLTVGWNWKPKRTEVCSLVKWREVEDVVRDEYAHNFRFTMKTLSTTFISETNEFNLNQIHLSQCVKEEARAIINRIYTTRYNSSHVRTGDIQTYLARGGFVVVFQPLLSNSLARLYLQELVRENTNHSPQKHPTRNTRSRRSVPVELRANRTITTTSSVEFAMLQFTYDHIQEHVNEMLARISSSWCQLQNRERALWSGLFPINPSALASTILDQRVKARILGDVISVSNCPELGSDTRIILQNSMRVSGSTTRCYSRPLISIVSLNGSGTVEGQLGTDNELIMSRDLLEPCVANHKRYFLFGHHYVYYEDYRYVREIAVHDVGMISTYVDLNLTLLKDREFMPLQVYTRDELRDTGLLDYSEIQRRNQMHSLRFYDIDKVVQYDSGTAIMQGMAQFFQGLGTAGQAVGHVVLGATGALLSTVHGFTTFLSNPFGALAVGLLVLAGLVAAFFAYRYVLKLKTSPMKALYPLTTKGLKQLPEGMDPFAEKPNATDTPIEEIGDSQNTEPSVNSGFDPDKFREAQEMIKYMTLVSAAERQESKARKKNKTSALLTSRLTGLALRNRRGYSRVRTENVTGV
notes: Varicella-zoster virus glycoprotein B, 931 amino acids, ORF31, strain pOka; cleaved by furin: both uncleaved (130 kDa) and cleaved (65 kDa) gB are present; also called native gB; full-length gB
stoichiometry N: 3
